In test [1] the target is T1, HAUSP TRAF domain HAUSP^62-205 (Homo sapiens, UniProt Q93009). It counts as binding. More on the design: All residues of HAUSP^62-205, with the exception of Asp^62, are included in the final model; hexahistidine tag (TEV-cleavable) (cleaved yes); made in house; host or cells: E. coli BL21 (DE3) RIPL. The conditions noted are these: for Ka / TΔS / ΔG: ITC, 20° C., pH 7.0. The procedure:
FIG. 5. Typical isothermal titration calorimetric measurements of the interactions between the HAUSP TRAF domain and the vIRF4 protein derivatives or other peptides. Purified proteins and synthesized peptides were reconstituted in 150 mM NaCl and 10 mM HEPES (pH 7.0). The calorimetric assays were performed using a VPITC system. All experiments were carried out with a stirring speed of 300 rpm at 20° C., and the thermal power was recorded every 10 s. Data were analyzed using the ORIGIN software package (version 7.0). […] Each titration against the HAUSP TRAF domain is indicated in each panel.
Purified proteins and synthesized peptides (Peptron Inc., Deajeon, Korea) were reconstituted in 150 mM NaCl and 10 mM HEPES (pH 7.0). The calorimetric assays were performed using a VP-ITC system (MicroCal Inc., Northampton, Mass.). Samples were degassed by vacuum aspiration for 15 min prior to loading. All experiments were carried out with a stirring speed of 300 rpm at 20° C., and the thermal power was recorded every 10 s. Data were analyzed using the ORIGIN software package (version 7.0) supplied with the instrument. […] (SEQ ID NO: 6); EBNA1^435-449, […] (SEQ ID NO: 7); MDM2^137-152, […] […] (SEQ ID NO: 10). Each set of ITC experiments was repeated two or three times.

In test [2] the target is T1, HAUSP TRAF domain HAUSP^62-205. The test can be described thus: Size exclusion chromatography of complex formation in excess MDM2^137-152. It counts as binding. Also noted: hexahistidine tag (TEV-cleavable) (cleaved yes); made in house; host or cells: E. coli BL21 (DE3) RIPL. The settings on record: in the presence of a 5-fold molar excess of MDM2^137-152.

T1 sequence (Q93009 62-205): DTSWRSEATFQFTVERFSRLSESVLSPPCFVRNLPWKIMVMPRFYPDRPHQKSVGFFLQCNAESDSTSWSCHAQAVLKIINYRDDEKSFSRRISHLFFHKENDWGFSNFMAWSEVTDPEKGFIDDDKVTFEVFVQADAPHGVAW

B1: vIRF4^153-256 (protein)
chain: SDTREQSYEEAGAAAPAPPKAPSGLRGRPRKSNRYYNVGDITTEQKAACSVWIPVNEGASTSGMGSSGTRQVTQASSFTWRVPGDPPAPSTLTGPSDPHSSGAG
In the case of B1, in test [1], the Ka is 13.20 ± 0.85 10^6 M^−1, the TΔS is -10.05 kcal/mol and the ΔG was -7.64 kcal/mol.

B2: vIRF4^153-216 (protein)
chain: SDTREQSYEEAGAAAPAPPKAPSGLRGRPRKSNRYYNVGDITTEQKAACSVWIPVNEGASTSGM
Take B2: the “complex formation with the TRAF domain” value in test [2] is reported as “formed a stable complex”. For the same molecule, in test [1] (ITC comparison), the “TRAF binding affinity (in words)” value is “comparable TRAF binding affinity”. Besides, in test [1], the Ka was 1.84 ± 0.10 10^6 M^−1, the TΔS is -7.35 kcal/mol and the ΔG was -8.41 kcal/mol.

(Values after US20180201654A1, “PEPTIDE INHIBITORS OF HAUSP DEUBIQUITINASE” (priority 2012, published 2018).)
